In patent publication US20140147439A1 (NVIP, published 2014):

Target: T1, human complement C1q (from human serum) (human, UniProt P02745 23-245; P02746 28-253; P02747 29-245)
T1 construct: Native C1q in human serum diluted 1/100
Test: ELISA: antibody captured on NGF-coated plate, incubated with human serum, bound C1q detected with sheep anti-C1q-HRP, absorbance at 450 nm
Procedure: The plates were washed and then incubated with human serum and bound complement C1q was measured by binding of anti-human C1q polyclonal antibody HRP and developed as above.
Plates were coated with 100 μl/well of 5 μg/ml mouse NGF and blocked with 5% BSA/PBS. […] The plates were washed and incubated for 1 hour at room temperature with 100 μl/well of human serum diluted 1/100 in veronal buffered saline containing 0.5 mM MgCl₂, 2 mM CaCl₂, 0.05% Tween-20, 0.1% gelatin and 0.5% BSA. After washing, plates were incubated with 100 μl of a 1/800 dilution of sheep anti-C1q-HRP (Serotec) in PBS/1% BSA. After washing, plates were developed by the addition of 100 μl TMB substrate (Thermo Scientific). Development was stopped by the addition of 100 μl of 2NH₂SO₄ and absorbance read at 450 nm.

T1 sequence (P02745 23-245 limits assumed, chain 1 of 3): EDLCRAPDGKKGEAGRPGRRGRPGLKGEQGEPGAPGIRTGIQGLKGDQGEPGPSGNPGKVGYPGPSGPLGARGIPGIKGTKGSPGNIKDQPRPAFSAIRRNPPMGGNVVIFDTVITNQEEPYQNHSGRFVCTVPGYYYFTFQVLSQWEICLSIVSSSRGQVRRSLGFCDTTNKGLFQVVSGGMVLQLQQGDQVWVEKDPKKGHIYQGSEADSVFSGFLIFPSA
T1 sequence (P02746 28-253 limits assumed, chain 2 of 3): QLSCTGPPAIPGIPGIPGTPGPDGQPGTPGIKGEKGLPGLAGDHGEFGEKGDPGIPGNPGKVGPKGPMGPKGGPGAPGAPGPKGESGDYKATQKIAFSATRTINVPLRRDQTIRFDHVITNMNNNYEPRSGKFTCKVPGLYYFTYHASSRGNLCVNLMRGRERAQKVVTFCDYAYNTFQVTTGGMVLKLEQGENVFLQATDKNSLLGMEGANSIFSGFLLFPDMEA
T1 sequence (P02747 29-245 limits assumed, chain 3 of 3): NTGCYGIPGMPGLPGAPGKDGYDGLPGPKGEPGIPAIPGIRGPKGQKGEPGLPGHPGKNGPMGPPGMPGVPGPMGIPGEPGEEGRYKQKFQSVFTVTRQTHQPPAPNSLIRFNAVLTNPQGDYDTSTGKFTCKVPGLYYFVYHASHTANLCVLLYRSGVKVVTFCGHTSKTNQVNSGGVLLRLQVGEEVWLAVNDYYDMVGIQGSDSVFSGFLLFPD

B1: felinised anti-NGF monoclonal antibody (heavy chain SEQ ID NO:6, light chain SEQ ID NO:5) (antibody, IgG2)
heavy: QVQLVESGGDLVQPGGSLRLTCAASGFSLTNNNVNWVRQAPGKGLEWMGGVWAGGATDYNSALKGRFTISRDNAKNTLYLQMNSLKTEDTATYYCARDGGYSSSTLYAMDAWGQGTLVTVSSASTTAPSVFPLAPSCGTTSGATVALACLVLGYFPEPVTVSWNSGALTSGVHTFPAVLQASGLYSLSSMVTVPSSRWLSDTFTCNVAHPPSNTKVDKTVRKTDHPPGPKPCDCPKCPPPEMLGGPSIFIFPPKPKDTLSISRTPEVTCLVVDLGPDDSDVQITWFVDNTQVYTAKTSPREEQFNSTYRVVSVLPILHQDWLKGKEFKCKVNSKSLPSPIERTISKAKGQPHEPQVYVLPPAQEELSRNKVSVTCLIKSFHPPDIAVEWEITGQPEPENNYRTTPPQLDSDGTYFVYSKLSVDRSHWQRGNTYTCSVSHEALHSHHTQKSLTQSPGK
light: DIVMTQTPLSLSVTPGEPASISCRASEDIYNALAWYLQKPGQSPRRLIYNTDTLHTGVPDRFSGSGSGTDFTLRISRVEADDVGVYFCQHYFHYPRTFGPGTKLEIKRSDAQPSVFLFQPSLDELHTGSASIVCILNDFYPKEVNVKWKVDGVVQTKASKESTTEQNSKDSTYSLSSTLTMSRTEYQSHEKFSCEVTHKSLASTLVKSFNRSECQRE
notes: Felinised alphaD11 variable domains with a feline HC2 (IgG2) heavy chain constant region and a feline kappa constant domain; also called felinised antibody; felinised anti-NGF MAb
binding result: no binding (tested: human serum diluted 1/100)
